In FireProtDB:
“And” between values parts separate entries of the source, which are not always exact repeats. Identical values can stand only once.

B1: Triosephosphate isomerase, P00943 (parent)
chain: MRKPIIAGNWKMHKTLAEAVQFVEDVKGHVPPADEVISVVCAPFLFLDRLVQAADGTDLKIGAQTMHFADQGAYTGEVSPVMLKDLGVTYVILGHSERRQMFAETDETVNKKVLAAFTRGLIPIICCGESLEEREAGQTNAVVASQVEKALAGLTPEQVKQAVIAYEPIWAIGTGKSSTPEDANSVCGHIRSVVSRLFGPEAAEAIRIQYGGSVKPDNIRDFLAQQQIDGPLVGGASLEPASFLQLVEAGRHE
B2: DNA-binding protein HU 1, P08821 (parent)
chain: MNKTELINAVAEASELSKKDATKAVDSVFDTILDALKNGDKIQLIGFGNFEVRERSARKGRNPQTGEEIEIPASKVPAFKPGKALKDAVAGK
B3: Pyrrolidone-carboxylate peptidase, O73944 (parent)
chain: MKVLVTGFEPFGGEKINPTERIAKDLDGIKIGDAQVFGRVLPVVFGKAKEVLEKTLEEIKPDIAIHVGLAPGRSAISIERIAVNAIDARIPDNEGKKIEDEPIVPGAPTAYFSTLPIKKIMKKLHERGIPAYISNSAGLYLCNYVMYLSLHHSATKGYPKMSGFIHVPYIPEQIIDKIGKGQVPPSMCYEMELEAVKVAIEVALEELL
B4: Decorsin, P17350 (parent)
chain: APRLPQCQGDDQEKCLCNKDECPPGQCRFPRGDADPYCE
B5: Proteinase inhibitor, Q03026 (parent)
chain: MSASAKLSRMVCLLCGFFSTGISMASSLILLSASDLAGQWTLQQDEAPAICHLELRDSEVAEASGYDLGGDTACLTRWLPSEPRAWRPTPAGIALLERGGLTLMLLGRQGEGDYRVQKGDGGQLVLRRATP
B6: Interleukin-6, P08505 (parent)
chain: MKFLSARDFHPVAFLGLMLVTTTAFPTSQVRRGDFTEDTTPNRPVYTTSQVGGLITHVLWEIVEMRKELCNGNSDCMNNDDALAENNLKLPEIQRNDGCYQTGYNQEICLLKISSGLLEYHSYLEYMKNNLKDNKKDKARVLQRDTETLIHIFNQEVKDLHKIVLPTPISNALLTDKLESQKEWLRTKTIQFILKSLEEFLKVTLRSTRQT
B7: Tryptophan synthase alpha chain, P0A877 (parent)
chain: MERYESLFAQLKERKEGAFVPFVTLGDPGIEQSLKIIDTLIEAGADALELGIPFSDPLADGPTIQNATLRAFAAGVTPAQCFEMLALIRQKHPTIPIGLLMYANLVFNKGIDEFYAQCEKVGVDSVLVADVPVEESAPFRQAALRHNVAPIFICPPNADDDLLRQIASYGRGYTYLLSRAGVTGAENRAALPLNHLVAKLKEYNAAPPLQGFGISAPDQVKAAIDAGAAGAISGSAIVKIIEQHINEPEKMLAALKVFVQPMKAATRS
B8: Cytochrome c2, P00094 (parent)
chain: MKISLTAATVAALVLAAPAFAGDAAKGEKEFNKCKTCHSIIAPDGTEIVKGAKTGPNLYGVVGRTAGTYPEFKYKDSIVALGASGFAWTEEDIATYVKDPGAFLKEKLDDKKAKTGMAFKLAKGGEDVAAYLASVVK
B9: Growth factor receptor-bound protein 2, Q08012 (parent)
chain: MEAIAKHDFSATADDELSFRKTQILKILNMEDDSNWYRAELDGKEGLIPSNYIEMKNHDWYYGRITRADAEKLLSNKHEGAFLIRISESSPGDFSLSVKCPDGVQHFKVLRDAQSKFFLWVVKFNSLNELVEYHRTASVSRSQDVKLRDMIPEEMLVQALYDFVPQESGELDFRRGDVITVTDRSDENWWNGEIGNRKGIFPATYVTPYHS
B10: AP-4 complex subunit mu-1, O00189 (parent)
chain: MISQFFILSSKGDPLIYKDFRGDSGGRDVAELFYRKLTGLPGDESPVVMHHHGRHFIHIRHSGLYLVVTTSENVSPFSLLELLSRLATLLGDYCGSLGEGTISRNVALVYELLDEVLDYGYVQTTSTEMLRNFIQTEAVVSKPFSLFDLSSVGLFGAETQQSKVAPSSAASRPVLSSRSDQSQKNEVFLDVVERLSVLIASNGSLLKVDVQGEIRLKSFLPSGSEMRIGLTEEFCVGKSELRGYGPGIRVDEVSFHSSVNLDEFESHRILRLQPPQGELTVMRYQLSDDLPSPLPFRLFPSVQWDRGSGRLQVYLKLRCDLLSKSQALNVRLHLPLPRGVVSLSQELSSPEQKAELAEGALRWDLPRVQGGSQLSGLFQMDVPGPPGPPSHGLSTSASPLGLGPASLSFELPRHTCSGLQVRFLRLAFRPCGNANPHKWVRHLSHSDAYVIRI
B11: Lactose operon repressor, P03023 (parent)
chain: MKPVTLYDVAEYAGVSYQTVSRVVNQASHVSAKTREKVEAAMAELNYIPNRVAQQLAGKQSLLIGVATSSLALHAPSQIVAAIKSRADQLGASVVVSMVERSGVEACKAAVHNLLAQRVSGLIINYPLDDQDAIAVEAACTNVPALFLDVSDQTPINSIIFSHEDGTRLGVEHLVALGHQQIALLAGPLSSVSARLRLAGWHKYLTRNQIQPIAEREGDWSAMSGFQQTMQMLNEGIVPTAMLVANDQMALGAMRAITESGLRVGADISVVGYDDTEDSSCYIPPLTTIKQDFRLLGQTSVDRLLQLSQGQAVKGNQLLPVSLVKRKTTLAPNTQTASPRALADSLMQLARQVSRLESGQ
B12: Cocaine esterase, Q9L9D7 (parent)
chain: MVDGNYSVASNVMVPMRDGVRLAVDLYRPDADGPVPVLLVRNPYDKFDVFAWSTQSTNWLEFVRDGYAVVIQDTRGLFASEGEFVPHVDDEADAEDTLSWILEQAWCDGNVGMFGVSYLGVTQWQAAVSGVGGLKAIAPSMASADLYRAPWYGPGGALSVEALLGWSALIGTGLITSRSDARPEDAADFVQLAAILNDVAGAASVTPLAEQPLLGRLIPWVIDQVVDHPDNDESWQSISLFERLGGLATPALITAGWYDGFVGESLRTFVAVKDNADARLVVGPWSHSNLTGRNADRKFGIAATYPIQEATTMHKAFFDRHLRGETDALAGVPKVRLFVMGIDEWRDETDWPLPDTAYTPFYLGGSGAANTSTGGGTLSTSISGTESADTYLYDPADPVPSLGGTLLFHNGDNGPADQRPIHDRDDVLCYSTEVLTDPVEVTGTVSARLFVSSSAVDTDFTAKLVDVFPDGRAIALCDGIVRMRYRETLVNPTLIEAGEIYEVAIDMLATSNVFLPGHRIMVQVSSSNFPKYDRNSNTGGVIAREQLEEMCTAVNRIHRGPEHPSHIVLPIIKR
B13: Glutamate dehydrogenase, Q56304 (parent)
chain: MVEQDPFEIAVKQLERAAQYMDISEEALEFLKRPQRIVEVSIPVEMDDGSVKVFTGFRVQYNWARGPTKGGIRWHPEETLSTVKALAAWMTWKTAVMDLPYGGGKGGVICNPKEMSDREKERLARGYVRAIYDVISPYTDIPAPDVYTNPQIMAWMMDEYETISRRKDPSFGVITGKPPSVGGIVARMDATARGASYTVREAAKALGMDLKGKTIAIQGYGNAGYYMAKIMSEEYGMKVVAVSDSKGGIYNPDGLNADEVLAWKKKTGSVKDFPGATNITNEELLELEVDVLAPSAIEEVITKKNADNIKAKIVAELANGPTTPEADEILYEKGILIIPDFLCNAGGVTVSYFEWVQNITGDYWTVEETRAKLDKKMTKAFWDVYNTHKEKNINMRDAAYVVAVSRVYQAMKDRGWIKK

Variants of: B1
Settings: Geobacillus stearothermophilus; pH 7.6; Thermal; DSC; TEA 100 mM; structure 1BTM; whole UniProt chain shown

Variant | Tm [°C] | change of melting temperature, mutant - wild type (higher = more stable) [°C]
H13N | 77 | 1
H13N K14G | 105 | 
K14G | 73 | -3

Variants of: B2
Settings: Bacillus subtilis (strain 168); pH 7.5; 20 °C; Thermal; CD; Tris/HCl 5 mM; reversible: yes; whole UniProt chain shown

Variant | unfolding free energy [kcal/mol]
F79W | 9.57
F50W | 8.61

Variants of: B3
Settings: Pyrococcus furiosus (strain ATCC 43587 / DSM 3638 / JCM 8422 / Vc1); pH 7; 60 °C; GdnHCl; CD; Tris-HCl 20 mM; reversible: yes; structure 1IOF; whole UniProt chain shown

Variant | denaturant m value [kcal/mol/M] | denaturant midpoint (higher = more stable) [M] | unfolding free energy [kcal/mol]
C142S C188S | 4.16 | 3.4 | 13.5

Variants of: B4
Settings: Macrobdella decora; pH 7; Thermal; CD; Na2HPO4 10 mM; reversible: Yes; structure 1DEC; whole UniProt chain shown

Variant | Tm [°C] | change of melting temperature, mutant - wild type (higher = more stable) [°C]
P24A | 66.5 | -7.5
P23A | 66.5 | -7.5
P23A P24A | 50 | -24

Variants of: B5
Settings: Pseudomonas aeruginosa (strain ATCC 15692 / DSM 22644 / CIP 104116 / JCM 14847 / LMG 12228 / 1C / PRS 101 / PAO1); pH 7.1; 25 °C; GdnHCl; CD; Tris-HCl 50 mM; reversible: yes (75%); structure 2RN4; whole UniProt chain shown

Variant | ddG of mutation (higher = less stable) [kcal/mol] | unfolding free energy [kcal/mol]
A33P | -3.2 | 7
W40F | -1.1 | 4.9
D35A | -2.7 | 6.5

Same assay, conditions: Pseudomonas aeruginosa (strain ATCC 15692 / DSM 22644 / CIP 104116 / JCM 14847 / LMG 12228 / 1C / PRS 101 / PAO1); pH 7.1; Thermal; CD; sodium phosphate 20 mM; NaCl 0.1 M; reversible: yes (75%); structure 2RN4; whole UniProt chain shown

Variant | Tm [°C] | change of melting temperature, mutant - wild type (higher = more stable) [°C] | unfolding enthalpy (van 't Hoff) [kcal/mol]
D35A | 81.5 | 17.7 | 84.5

Variants of: B6
Settings: Mus musculus; pH 4; 25 °C; Urea; CD; Sodium acetate 20 mM/; reversible: yes; structure 2L3Y; whole UniProt chain shown

Variant | denaturant midpoint (higher = more stable) [M]
Y123A | 4.1
F200A | 2.6

Same assay, conditions: Mus musculus; pH 4; 25 °C; Urea; Fluorescence; Sodium acetate 20 mM/; reversible: yes; structure 2L3Y; whole UniProt chain shown

Variant | denaturant midpoint (higher = more stable) [M]
F200A | 3.5

Same assay, conditions: Mus musculus; pH 4; 37 °C; Urea; CD; Sodium acetate 20 mM/; reversible: yes; structure 2L3Y; whole UniProt chain shown

Variant | denaturant midpoint (higher = more stable) [M]
F200A | 2.6

Same assay, conditions: Mus musculus; pH 4; 37 °C; Urea; Fluorescence; Sodium acetate 20 mM/; reversible: yes; structure 2L3Y; whole UniProt chain shown

Variant | denaturant midpoint (higher = more stable) [M]
F200A | 3.5

Variants of: B7
Settings: Escherichia coli (strain K12); pH 7.8; 25 °C; Urea; Fluorescence; Potassium phosphate 10 mM; transition: 3; reversible: yes; structure 1WQ5; whole UniProt chain shown

Variant | unfolding free energy
F139W | 5.6 kcal/mol and 4.9 kcal/mol

Same assay, conditions: Escherichia coli (strain K12); pH 7.8; 25 °C; Urea; Fluorescence; Potassium phosphate 10 mM; reversible: yes; structure 1WQ5; whole UniProt chain shown

Variant | unfolding free energy [kcal/mol]
F258W | 7

Same assay, conditions: Escherichia coli (strain K12); pH 9; Thermal; DSC; Sodium tetraborate 1 mM; reversible: yes(>70%); structure 1WQ5; whole UniProt chain shown

Variant | Tm [°C] | change of melting temperature, mutant - wild type (higher = more stable) [°C]
K109N | 52.5 | -1.5

Same assay, conditions: Escherichia coli (strain K12); pH 7; 25.8 °C; GdnHCl; CD; Potassium phosphate 0.01 M; reversible: yes; structure 1WQ5; whole UniProt chain shown

Variant | ddG of mutation (higher = less stable) [kcal/mol] | unfolding free energy [kcal/mol]
E49M | -4.6 | 13.4

Variants of: B8
Settings: Rhodobacter capsulatus (strain ATCC BAA-309 / NBRC 16581 / SB1003); pH 7.5; 30 °C; GdnHCl; CD; Tris 20 mM; structure 1C2R; whole UniProt chain shown

Variant | denaturant midpoint (higher = more stable) [M]
G55S | 0.86
P56A | 0.9

Variants of: B9
Settings: Drosophila melanogaster; pH 6; 20 °C; GdnHCl; Fluorescence; phosphate 50 mM; structure 2A36; whole UniProt chain shown

Variant | ddG of mutation (higher = less stable) [kcal/mol] | denaturant m value [kcal/mol/M] | unfolding free energy [kcal/mol]
T22G | -3.6 | 2.2 | 4

Variants of: B10
Settings: Homo sapiens; pH 7.4; Thermal; DSC; structure 3L81; whole UniProt chain shown

Variant | Tm [°C] | change of melting temperature, mutant - wild type (higher = more stable) [°C]
D190A | 50.9 | -4.9
R283D | 52.8 | -3

Variants of: B11
Settings: Escherichia coli (strain K12); pH 7.5; Urea; CD; Tris-HCl 0.01 M; K2SO4 0.1 M; reversible: yes (90%); structure 1LBI; whole UniProt chain shown

Variant | unfolding free energy [kcal/mol]
Y282D | 4.8

Same assay, conditions: Escherichia coli (strain K12); pH 7.4; Thermal; CD; phosphate 5 mM; reversible: no; structure 1LBI; whole UniProt chain shown

Variant | Tm [°C]
K84L | 93
K84M | 93

Variants of: B12
Settings: Rhodococcus sp. (strain MB1 Bresler); pH 8; Thermal; Fluorescence; Tris 50 mM; structure 1JU3; whole UniProt chain shown

Variant | Tm [°C] | change of melting temperature, mutant - wild type (higher = more stable) [°C]
L169K | 41.1 | 6.3
T172R G173Q | 41.2 | 6.41
G173Q | 37.7 | 2.97

Variants of: B13
Settings: Thermococcus litoralis (strain ATCC 51850 / DSM 5473 / JCM 8560 / NS-C); pH 7; Thermal; DSC; diglycine 50 mM; KCl 700 mM; reversible: no; structure 1BVU; whole UniProt chain shown

Variant | Tm [°C] | change of melting temperature, mutant - wild type (higher = more stable) [°C]
T139E D168T | 112 | 2.5
D168T | 108 | -0.5
